From patent US20220195407, “OPTIMIZATION OF ENGINEERED MEGANUCLEASES FOR RECOGNITION SEQUENCES” (Precision BioSciences, Inc., published 2022) come the findings set out here.

Holding throughout (assay): cell_activity; CHO iGFFP reporter
For one data set, the target named is T1, LOX 3-4 M.23 (artificial (I-CreI derived)).
T1 chain: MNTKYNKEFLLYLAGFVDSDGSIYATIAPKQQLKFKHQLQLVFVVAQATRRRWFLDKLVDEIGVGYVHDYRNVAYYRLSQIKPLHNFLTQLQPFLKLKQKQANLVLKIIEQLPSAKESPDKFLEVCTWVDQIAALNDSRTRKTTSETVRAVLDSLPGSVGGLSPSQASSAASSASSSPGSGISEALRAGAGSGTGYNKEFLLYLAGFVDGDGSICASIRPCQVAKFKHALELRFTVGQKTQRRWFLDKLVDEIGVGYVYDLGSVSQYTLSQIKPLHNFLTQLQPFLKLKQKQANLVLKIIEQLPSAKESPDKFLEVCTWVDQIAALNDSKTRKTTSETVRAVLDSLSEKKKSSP
From the text: (§1) A CHO cell reporter system (see WO/2012/167192, FIG. 3) was used to determine whether the engineered meganucleases generated in these studies could recognize and cleave the modified LOX 3-4 recognition sequences in Table 87. To perform the assay, a pair of CHO cell reporter lines were produced, which carried a non-functional Green Fluorescent Protein (GFP) gene expression cassette integrated into the genome of the cell. The GFP gene in each cell line was interrupted by a pair of recognition sequences such that intracellular cleavage of either recognition sequence by a meganuclease would stimulate a homologous recombination event resulting in a functional GFP gene. In both cell lines, one of the recognition sequences was derived from the LOX 3-4 recognition sequence (i.e., those sequences disclosed in Table 87), and the second recognition sequence was specifically recognized by a control meganuclease called “CHO 23/24.” CHO reporter cells comprising a recognition sequence derived from the LOX 3-4 recognition sequence and the CHO 23/24 recognition sequence are referred to herein as “test cells.”
(§2) Novel engineered meganucleases derived from the LOX 3-4x.109 meganuclease were prepared by making amino acid substitutions at one or more positions in the first subunit. These engineered meganucleases were then evaluated for cleavage of the LOX 3-4 recognition sequence modified to have a GTAA center sequence (SEQ ID NO: 358) in the CHO reporter assay according to Example 1. Novel meganucleases which were modified to comprise the residues recited in the tables below were capable of cleaving the LOX 3-4 recognition sequence having a GTAA four base pair center sequence.

The next data set has as its target T2, LOX 3-4 M.6 (artificial (I-CreI derived)).
T2 chain: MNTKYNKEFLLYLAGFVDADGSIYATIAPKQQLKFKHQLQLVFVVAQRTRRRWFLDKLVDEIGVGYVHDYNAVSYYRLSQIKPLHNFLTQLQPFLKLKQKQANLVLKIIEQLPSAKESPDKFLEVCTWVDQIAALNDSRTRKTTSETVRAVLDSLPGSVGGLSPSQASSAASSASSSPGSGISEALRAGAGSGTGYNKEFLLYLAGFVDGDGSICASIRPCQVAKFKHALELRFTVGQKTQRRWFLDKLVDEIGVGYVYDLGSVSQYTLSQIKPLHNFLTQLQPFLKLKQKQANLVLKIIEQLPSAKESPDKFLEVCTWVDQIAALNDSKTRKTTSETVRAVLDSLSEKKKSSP
Source text: as §1, §2

The target of another data set is T3, LOX 3-4 M.15 (artificial (I-CreI derived)).
T3 chain: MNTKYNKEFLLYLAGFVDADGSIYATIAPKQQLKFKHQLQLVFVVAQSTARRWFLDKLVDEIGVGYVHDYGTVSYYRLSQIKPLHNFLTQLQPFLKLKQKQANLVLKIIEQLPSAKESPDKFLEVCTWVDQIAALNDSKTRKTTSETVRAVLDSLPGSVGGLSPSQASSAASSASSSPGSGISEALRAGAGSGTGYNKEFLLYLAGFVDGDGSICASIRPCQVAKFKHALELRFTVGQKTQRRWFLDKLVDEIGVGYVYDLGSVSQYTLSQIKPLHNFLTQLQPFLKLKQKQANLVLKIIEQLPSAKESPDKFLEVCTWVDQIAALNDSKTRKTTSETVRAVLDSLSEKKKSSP
Source text: as §1, §2

The next data set has as its target T4, LOX 3-4m.1687 (artificial (I-CreI derived)).
T4 chain: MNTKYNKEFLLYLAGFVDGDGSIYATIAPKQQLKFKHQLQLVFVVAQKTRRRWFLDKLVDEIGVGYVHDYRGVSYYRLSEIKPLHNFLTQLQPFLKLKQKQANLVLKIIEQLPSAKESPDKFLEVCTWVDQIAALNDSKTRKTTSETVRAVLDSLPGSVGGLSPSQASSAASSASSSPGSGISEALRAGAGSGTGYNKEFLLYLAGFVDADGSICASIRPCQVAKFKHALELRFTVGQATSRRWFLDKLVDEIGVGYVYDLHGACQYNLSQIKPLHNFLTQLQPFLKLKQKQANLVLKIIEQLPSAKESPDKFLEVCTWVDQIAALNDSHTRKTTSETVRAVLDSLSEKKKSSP
Source text: as §1
as §2, with “first subunit and one or more positions in the second” for “first”, “GCAT” for “GTAA”, “292)” for “358)”, “1. The substitutions in each subunit are provided in Tables 151 and 152, respectively.” for “1.”, “continued to cleave” for “were capable of cleaving”

In a further data set the target is T5, LOX 3-4m.1679 (artificial (I-CreI derived)).
T5 chain: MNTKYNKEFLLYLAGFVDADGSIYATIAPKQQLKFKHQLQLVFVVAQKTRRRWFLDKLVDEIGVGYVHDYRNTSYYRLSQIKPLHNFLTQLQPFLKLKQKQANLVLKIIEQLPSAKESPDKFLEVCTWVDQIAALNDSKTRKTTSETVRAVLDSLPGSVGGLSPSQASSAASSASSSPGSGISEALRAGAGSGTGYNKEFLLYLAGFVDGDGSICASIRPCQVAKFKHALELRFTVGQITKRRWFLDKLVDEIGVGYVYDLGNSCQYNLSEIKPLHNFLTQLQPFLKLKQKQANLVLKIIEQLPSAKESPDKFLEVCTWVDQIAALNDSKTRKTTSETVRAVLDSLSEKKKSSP
Source text: as §1
as §2, with “first subunit and one or more positions in the second” for “first”, “GCAT” for “GTAA”, “292)” for “358)”, “1. The substitutions in each subunit are provided in Tables 151 and 152, respectively.” for “1.”, “continued to cleave” for “were capable of cleaving”

For a further data set, the target named is T6, LOX 3-4m.1689 (artificial (I-CreI derived)).
T6 chain: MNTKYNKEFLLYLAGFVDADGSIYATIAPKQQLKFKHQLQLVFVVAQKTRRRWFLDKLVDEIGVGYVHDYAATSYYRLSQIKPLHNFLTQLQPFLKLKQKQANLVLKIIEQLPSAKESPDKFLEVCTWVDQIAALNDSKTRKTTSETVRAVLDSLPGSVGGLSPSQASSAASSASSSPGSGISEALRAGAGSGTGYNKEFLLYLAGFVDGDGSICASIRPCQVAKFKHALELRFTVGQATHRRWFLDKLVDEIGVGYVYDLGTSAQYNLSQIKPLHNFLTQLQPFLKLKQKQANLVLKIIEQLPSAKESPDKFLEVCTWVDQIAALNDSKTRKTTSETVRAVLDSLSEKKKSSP
Source text: as §1
as §2, with “first subunit and one or more positions in the second” for “first”, “GCAT” for “GTAA”, “292)” for “358)”, “1. The substitutions in each subunit are provided in Tables 151 and 152, respectively.” for “1.”, “continued to cleave” for “were capable of cleaving”

For the next data set, the target named is T7, LOX 3-4m.1601 (artificial (I-CreI derived)).
T7 chain: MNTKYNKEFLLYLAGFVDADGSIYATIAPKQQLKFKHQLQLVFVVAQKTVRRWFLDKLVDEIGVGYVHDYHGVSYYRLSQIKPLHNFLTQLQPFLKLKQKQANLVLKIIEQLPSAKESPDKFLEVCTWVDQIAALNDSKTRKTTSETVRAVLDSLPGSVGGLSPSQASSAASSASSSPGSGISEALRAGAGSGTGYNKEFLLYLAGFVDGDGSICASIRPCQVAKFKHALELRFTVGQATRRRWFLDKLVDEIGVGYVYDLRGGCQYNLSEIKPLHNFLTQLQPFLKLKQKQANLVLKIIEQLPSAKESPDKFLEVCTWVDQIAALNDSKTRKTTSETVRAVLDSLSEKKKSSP
Source text: as §1
as §2, with “first subunit and one or more positions in the second” for “first”, “GCAT” for “GTAA”, “292)” for “358)”, “1. The substitutions in each subunit are provided in Tables 151 and 152, respectively.” for “1.”, “continued to cleave” for “were capable of cleaving”

The target of another data set is T8, LOX 3-4m.1780 (artificial (I-CreI derived)).
T8 chain: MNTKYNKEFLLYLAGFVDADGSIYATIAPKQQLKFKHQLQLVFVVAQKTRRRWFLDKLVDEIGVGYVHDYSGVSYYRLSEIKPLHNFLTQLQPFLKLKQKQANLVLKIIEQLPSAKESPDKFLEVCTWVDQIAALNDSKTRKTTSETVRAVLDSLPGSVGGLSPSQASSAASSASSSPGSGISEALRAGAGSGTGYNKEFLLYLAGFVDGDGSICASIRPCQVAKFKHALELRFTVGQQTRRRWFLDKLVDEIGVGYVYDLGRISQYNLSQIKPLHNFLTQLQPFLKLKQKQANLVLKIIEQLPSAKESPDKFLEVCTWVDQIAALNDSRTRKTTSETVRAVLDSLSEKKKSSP
Source text: as §1
(§3) Novel engineered meganucleases derived from the LOX 3-4x.109 meganuclease were prepared by making amino acid substitutions at one or more positions in the first subunit and one or more positions in the second subunit. These engineered meganucleases were then evaluated for cleavage of the LOX 3-4 recognition sequence modified to have a GCGA center sequence (SEQ ID NO: 314) in the CHO reporter assay according to Example 1.

A further data set has as its target T9, LOX 3-4m.1745 (artificial (I-CreI derived)).
T9 chain: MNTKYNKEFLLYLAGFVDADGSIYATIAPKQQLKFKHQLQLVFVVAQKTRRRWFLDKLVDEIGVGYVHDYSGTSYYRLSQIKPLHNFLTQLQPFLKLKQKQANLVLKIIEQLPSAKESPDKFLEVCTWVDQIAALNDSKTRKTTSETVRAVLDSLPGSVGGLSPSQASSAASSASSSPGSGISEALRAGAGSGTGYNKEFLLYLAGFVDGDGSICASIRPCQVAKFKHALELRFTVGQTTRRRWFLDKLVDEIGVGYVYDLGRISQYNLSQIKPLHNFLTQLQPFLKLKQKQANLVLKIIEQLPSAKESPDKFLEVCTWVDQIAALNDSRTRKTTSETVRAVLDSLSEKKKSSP
Source text: as §1, §3

The target in the next data set is T10, LOX 3-4m.1782 (artificial (I-CreI derived)).
T10 chain: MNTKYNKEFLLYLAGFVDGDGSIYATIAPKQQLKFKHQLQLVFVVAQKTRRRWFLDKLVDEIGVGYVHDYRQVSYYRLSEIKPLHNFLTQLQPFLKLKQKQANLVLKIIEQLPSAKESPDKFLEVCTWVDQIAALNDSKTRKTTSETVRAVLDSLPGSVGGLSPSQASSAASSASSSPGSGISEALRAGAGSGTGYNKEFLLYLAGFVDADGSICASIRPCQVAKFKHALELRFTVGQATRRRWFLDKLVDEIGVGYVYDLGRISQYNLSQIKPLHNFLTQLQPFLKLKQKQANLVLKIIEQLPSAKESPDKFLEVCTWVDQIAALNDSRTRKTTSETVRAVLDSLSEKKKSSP
Source text: as §1, §3

A further data set addresses T11, LOX 3-4m.1781 (artificial (I-CreI derived)).
T11 chain: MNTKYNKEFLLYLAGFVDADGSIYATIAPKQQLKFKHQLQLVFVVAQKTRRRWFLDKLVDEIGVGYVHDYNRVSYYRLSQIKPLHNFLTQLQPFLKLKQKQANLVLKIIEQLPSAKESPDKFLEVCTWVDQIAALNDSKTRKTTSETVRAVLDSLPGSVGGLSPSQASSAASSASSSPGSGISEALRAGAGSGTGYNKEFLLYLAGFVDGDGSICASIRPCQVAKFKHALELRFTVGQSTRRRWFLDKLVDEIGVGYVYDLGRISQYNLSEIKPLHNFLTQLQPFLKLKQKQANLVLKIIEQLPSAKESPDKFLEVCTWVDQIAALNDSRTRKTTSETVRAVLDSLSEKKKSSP
Source text: as §1, §3

B1: LOX 3-4 GTAA (dsDNA)
DNA 1: GTATAGCATGTAATATACGAAG
DNA 2: CTTCGTATATTACATGCTATAC
Regarding B1, the activity with LOX 3-4 M.23 stood at 13.2 % GFP; with LOX 3-4 M.6, 11.4 % GFP; with LOX 3-4 M.15, 11.5 % GFP.

B2: LOX 3-4 GCAT (dsDNA)
DNA 1: GTATAGCATGCATTATACGAAG
DNA 2: CTTCGTATAATGCATGCTATAC
For B2, the activity is 10.9 % GFP in the data set with LOX 3-4m.1687, 10.8 % GFP with LOX 3-4m.1679, 11.2 % GFP with LOX 3-4m.1689 and 10.9 % GFP with LOX 3-4m.1601.

B3: LOX 3-4 GCGA (dsDNA)
DNA 1: GTATAGCATGCGATATACGAAG
DNA 2: CTTCGTATATCGCATGCTATAC
B3: the activity in the data set with LOX 3-4m.1780 stood at 6.53 % GFP; with LOX 3-4m.1745, 5.13 % GFP; with LOX 3-4m.1782, 5.45 % GFP; in the data set with LOX 3-4m.1781 it was 6.58 % GFP.
